# From US20250376507A1, “NOVEL TUMOR ANTIGEN-TARGETING ANTICANCER AGENT” (INDUSTRY FOUNDATION OF CHONNAM NATIONAL UNIVERSITY, priority 2022, published 2025)
# Values joined by “and” are separate entries in the source; they are usually repeats but may differ in a detail not shown here. Equal values may be shown once.
# Legend:
# CT-26 tumor = assay: In vivo anti-cancer efficacy in CT-26 tumor-bearing mice; settings: for tumor suppression in mice treated with GEM: combination with GEM (non-ICD-inducing); for tumor growth in mice treated with ICD-inducing drugs: summary statement, doxorubicin and mitozantrone
# Procedure: (§1) CT-26 and MC-38 tumor cells (106 in 100 μL PBS) were implanted subcutaneously into the right flanks of 6-week-old BALB/c and C57BL/6 female mice (Orient company, Korea), respectively. When the tumors reached about 100 mm^3, the tumor-bearing mice were injected intraperitoneally with anticancer agents (15 mg/kg GEM, 10 mg/kg DOX or 2 mg/kg MTX) three times every 2 days. Simultaneously, the mice were injected intravenously with the PASylated recombinant proteins of the present invention five times every 2 days. The length (L), width (W), and height (H) of each tumor were recorded every 3 days using a digital caliper, and the tumor volume (mm3) was calculated using the following formula (L×H×W)/2. Mice were euthanized when tumors were ˜1,500 mm^3 and all animal experiments were performed in accordance with the general principles and procedures outlined in the National Institutes of Health Guidelines, and all protocols were approved by the Chonnam National University Animal Care and Use Committee (permit number: HCRL 16-001).
# CT-26 cells = assay: Cell viability (CCK-8) of CT-26 cells; assay type: cell-based, mouse; settings: 1 IU/mL; for cell viability: 24 h, no anticancer pretreatment; for reduction of viability of cells pretreated with DOX and MTX, higher extent: 24 h after DOX or MTX pretreatment; for reduction in cell viability in cells pretreated with GEM: 24 h after GEM pretreatment
# Procedure: CT-26 and MC-38 cells (10^4 cells per well) were seeded into three wells of a 96-well plate and incubated at 37° C. The next day, the culture medium was replaced with 100 μL of fresh medium containing the above concentrations of anticancer agents. After incubation at 37° C. for 4 h, the culture medium was removed and the cells were washed three times with PBS. […] Finally, CCK-8 reagent (10 μL/well) was added for 3 h at 37° C., and the amount of color in each sample was measured at OD450.
# ecto-CRT on CT-26 cells [1] = target: T1, ecto-CRT on CT-26 cells (Mus musculus, UniProt P14211); assay: Flow cytometry binding to anticancer-agent-treated CT-26 cells; assay type: cell-based; settings: for binding to cells: 100 nM protein; for binding after pretreatment with anti-CRT antibodies: CT-26 cells treated with DOX or MTX
# T1 sequence (P14211 18-416): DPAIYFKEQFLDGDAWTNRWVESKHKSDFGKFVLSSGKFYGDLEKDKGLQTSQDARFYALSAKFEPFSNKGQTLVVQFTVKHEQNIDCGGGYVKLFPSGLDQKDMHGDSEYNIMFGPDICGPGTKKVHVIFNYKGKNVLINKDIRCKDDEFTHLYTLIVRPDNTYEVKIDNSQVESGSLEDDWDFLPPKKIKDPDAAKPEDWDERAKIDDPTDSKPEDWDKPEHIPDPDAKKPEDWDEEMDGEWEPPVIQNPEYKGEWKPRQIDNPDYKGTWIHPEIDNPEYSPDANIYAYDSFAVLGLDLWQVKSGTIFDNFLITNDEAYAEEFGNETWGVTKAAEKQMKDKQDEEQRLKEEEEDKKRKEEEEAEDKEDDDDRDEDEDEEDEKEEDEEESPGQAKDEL
# Procedure: Cells were cultured at 37° C. in DMEM medium supplemented with 10% FBS and 100 U of streptomycin/penicillin in an atmosphere of 5% CO2. Cells were treated with each anticancer drug [3 μM methotrexate (MTX), 25 μM […] (DOX), or 15 μM gemcitabine (GEM)] to induce apoptosis (Y. Zhang, et al., Cancers, 13 (11), 2801, 2021). After 4 h of incubation, the cells were scraped and detached from the plate. The cells (10^5) were fixed with 1% PFA for 15 min and then treated with 100 nM of PASylated recombinant proteins for 1 h on ice. After washing five times with cold PBS buffer containing 0.1% Tween-20 (T-PBS), the cells were incubated with anti-His tagged monobodies (diluted to 1:1000) for 1 h and then treated with Alexa Fluor 488-conjugated secondary antibodies (5 μg/mL) for 1 h. Fluorescence signals were detected by FACSCanto II Flow Cytometer (BD Biosciences, USA). For blocking experiments, cells were first incubated with anticancer agents for 4 h and fixed with 1% PFA. Cells were then incubated with anti-CRT antibodies (diluted to1: 400) for 1 h to mask ecto-CRT. Cells were stained with PASylated recombinant proteins and followed the same procedure as described above.
# MC-38 tumor = assay: In vivo anti-cancer efficacy in MC-38 tumor-bearing mice; parameters: species or system C57BL/6 mice; settings: summary statement
# Procedure: as §1
# ecto-CRT on CT-26 cells [2] = target: T1, ecto-CRT on CT-26 cells; assay: Confocal immunofluorescence staining of CT-26 cells; assay type: cell-based; parameters: endogenous in cells; host or cells: CT-26 and MC-38 mouse colon cancer cells (in culture, or CT-26 tumors in mice)
# Procedure: PASylated CRT-targeted L-ASNases bound to ecto-CRT on cells were visualized by confocal immunofluorescence microscopy with reference to the prior art (Y. Zhang, et al., Cancers, 13(11), 2801, 2021). After overnight incubation in a cover-glass, CT-26 and MC-38 cells (104) were treated with anticancer agents for 4 h at 37° C. The cells were then fixed with 1% PFA for 15 min, stained with 100 nM PASylated recombinant proteins for 1 h on ice, and treated with anti-His tagged monobodies (diluted to 1:1000) and Alexa Fluor 488-conjugated secondary antibody for 1 h (5 μg/mL). Cell membranes were stained with Alexa Fluor 555-conjugated wheat germ agglutinin (WGA) (diluted to 1:5000). Between each step, samples were washed with cold T-PBS. Finally, the cells were incubated with 4′,6-diamidino-2-phenylindole (DAPI) (Thermo Fisher Scientific, USA) to stain the nuclei. Immunofluorescence signals were imaged using an LSM510 confocal microscope (ZEISS, Jena, Germany) and data were analyzed with ZEN-LSM imaging software (ZEISS, Jena, Germany).
# [3] = CT-26 cells treated with DOX and MTX
# [4] = CT-26 cells with GEM or PBS treatment
# [5] = CT-26 cells treated with DOX or MTX
molecule,measurement,setting,value
CRT3LP: PASylated L-ASNase fused with CRT-targeting CRT3 monobody at N-terminus and PAS200 tag plus His6 tag at C-terminus (protein) MASVSDVPRDLEVVAATPTSLLISWKLGFFKRYYRITYGETGGNSPVQEFTVPGSKSTATISGLKPGVDYTITVYAVTGQPMYGQPMYPISINYRTSGGGGSGGGGSEFLPNITILATGGTIAGGGDSATKSNYTAGKVGVENLVNAVPQLKDIANVKGEQVVNIGSQDMNDDVWLTLAKKINTDCDKTDGFVITHGTDTMEETAYFLDLTVKCDKPVVMVGAMRPSTSMSADGPFNLYNAVVTAADKASANRGVLVVMNDTVLDGRDVTKTNTTDVATFKSVNYGPLGYIHNGKIDYQRTPARKHTSDTPFDVSKLNELPKVGIVYNYANASDLPAKALVDAGYDGIVSAGVGNGNLYKTVFDTLATAAKNGTAVVRSSRVPTGATTQDVEVDDAKYGFVASGTLNPQKARVLLQLALTQTKDPQQIQQIFNQYGSSGGGGSGGGGSASPAAPAPASPAAPAPSAPAASPAAPAPASPAAPAPSAPAASPAAPAPASPAAPAPSAPAASPAAPAPASPAAPAPSAPAASPAAPAPASPAAPAPSAPAASPAAPAPASPAAPAPSAPAASPAAPAPASPAAPAPSAPAASPAAPAPASPAAPAPSAPAASPAAPAPASPAAPAPSAPAASPAAPAPASPAAPAPSAPAAGSHHHHHH,sudden death of mice,"CT-26 tumor; 20 IU CRT3LP per injection, DOX-treated mice, by day 12",caused sudden death and 2 out of 3 and Two of the mice injected with 20 IU died
same,optimal therapeutic dose,CT-26 tumor; DOX-treated mice,8 IU/injection/mouse
same,tumor suppression in mice treated with GEM,CT-26 tumor,not and did not enhance tumor suppression
same,tumor growth in mice treated with ICD-inducing drugs,CT-26 tumor,significantly inhibiting tumor growth
same,cell viability,CT-26 cells,barely affected
same,"reduction of viability of cells pretreated with DOX and MTX, higher extent",CT-26 cells,2 fold
same,reduction in cell viability in cells pretreated with GEM,CT-26 cells,not observed
same,binding to cells,ecto-CRT on CT-26 cells [1]; [3],efficiently bound
same,binding after pretreatment with anti-CRT antibodies,ecto-CRT on CT-26 cells [1],significantly inhibited
same,binding to cells,ecto-CRT on CT-26 cells [1]; [4],not
same,tumor growth in mice treated with ICD-inducing drugs,MC-38 tumor,significantly inhibiting tumor growth
same,"immunofluorescence staining, binding to cells",ecto-CRT on CT-26 cells [2]; [5],only bound
same,"immunofluorescence staining, binding to cells",ecto-CRT on CT-26 cells [2]; CT-26 cells treated with GEM,not
CRT4LP: PASylated L-ASNase fused with CRT-targeting CRT4 monobody at N-terminus and PAS200 tag plus His6 tag at C-terminus (protein) MASVSDVPRDLEVVAATPTSLLISWGQPMYGQPMYYYRITYGETGGNSPVQEFTVPGSKSTATISGLKPGVDYTITVYAVTKLGFFKRPISINYRTSGGGGSGGGGSEFLPNITILATGGTIAGGGDSATKSNYTAGKVGVENLVNAVPQLKDIANVKGEQVVNIGSQDMNDDVWLTLAKKINTDCDKTDGFVITHGTDTMEETAYFLDLTVKCDKPVVMVGAMRPSTSMSADGPFNLYNAVVTAADKASANRGVLVVMNDTVLDGRDVTKTNTTDVATFKSVNYGPLGYIHNGKIDYQRTPARKHTSDTPFDVSKLNELPKVGIVYNYANASDLPAKALVDAGYDGIVSAGVGNGNLYKTVFDTLATAAKNGTAVVRSSRVPTGATTQDVEVDDAKYGFVASGTLNPQKARVLLQLALTQTKDPQQIQQIFNQYGSSGGGGSGGGGSASPAAPAPASPAAPAPSAPAASPAAPAPASPAAPAPSAPAASPAAPAPASPAAPAPSAPAASPAAPAPASPAAPAPSAPAASPAAPAPASPAAPAPSAPAASPAAPAPASPAAPAPSAPAASPAAPAPASPAAPAPSAPAASPAAPAPASPAAPAPSAPAASPAAPAPASPAAPAPSAPAASPAAPAPASPAAPAPSAPAAGSHHHHHH,tumor suppression in mice treated with GEM,CT-26 tumor,not and did not enhance tumor suppression
same,tumor growth in mice treated with ICD-inducing drugs,CT-26 tumor,significantly inhibiting tumor growth
same,cell viability,CT-26 cells,barely affected
same,"reduction of viability of cells pretreated with DOX and MTX, higher extent",CT-26 cells,2 fold
same,reduction in cell viability in cells pretreated with GEM,CT-26 cells,not observed
same,binding to cells,ecto-CRT on CT-26 cells [1]; [3],efficiently bound
same,binding after pretreatment with anti-CRT antibodies,ecto-CRT on CT-26 cells [1],significantly inhibited
same,binding to cells,ecto-CRT on CT-26 cells [1]; [4],not
same,tumor growth in mice treated with ICD-inducing drugs,MC-38 tumor,significantly inhibiting tumor growth
same,"immunofluorescence staining, binding to cells",ecto-CRT on CT-26 cells [2]; [5],only bound
same,"immunofluorescence staining, binding to cells",ecto-CRT on CT-26 cells [2]; CT-26 cells treated with GEM,not
